# Measured values taken from patent US20160311887A1 (CAMBRIDGE ENTERPRISE, published 2016).
# Key:
# [1] = target: T1, activated Protein C (APC) (human, UniProt P04070 43-197; P04070 212-461); assay: ratio of rate constants, APC over fXa
# T1 construct: also called human plasma APC
# Procedure: (§1) The inhibition of APC was reduced but still considerable, especially for the variants of α₁AT and the PCI variants in the presence of heparin. However, the specificity of PCI and α₁AT Pitts is not limited to thrombin and APC. […] In order not to inhibit coagulation, our variants also need to be specific for APC over fXa. We therefore also determined the rate constants of inhibition of PCI and α₁AT and their variants for fXa (Table 3). Rate constants were measured under pseudo-first-order conditions using an excess of serpin over protease. Serpin and protease were incubated together for varying lengths of time and the residual activity determined by adding an excess of chromogenic substrate (S2222) for the protease. Plots of residual protease activity over time gave the observed rate constant kobs. The second-order rate constant, k₂, is the slope of the plot of kobs versus serpin concentration (fitted using a linear regression model). Standard errors of the slope are shown (Table 3).
# [2] = target: T1, activated Protein C (APC); assay: ratio of rate constants, APC over thrombin
# Procedure: (§2) Rate constants of thrombin and APC inhibition were measured under pseudo-first-order conditions using an excess of serpin over protease (Table 1). Serpin and protease were incubated together for varying lengths of time and the residual activity was determined by adding an excess of chromogenic substrate for the protease (S2238 for thrombin and […] for APC). Residual protease activity was then measured by following the absorbance at 405 nm. Plots of residual protease activity over time gave the observed rate constant kobs. The second-order rate constant, ₖ₂, is the slope of the plot of kobs versus serpin concentration (fitted using a linear regression model). Standard errors of the slope are shown.
# [3] = target: T1, activated Protein C (APC); assay: ratio of rate constants with heparin, APC over thrombin
# Procedure: (§3) PCI, unlike α₁AT, binds heparin and this binding considerably increases its inhibition of thrombin and APC (Pratt & Church, 1992). We therefore tested the inhibition of thrombin and APC by the P1′K and P2KP1′K PCI mutants in the presence of heparin to see if the swap in specificity seen in Table 1 would persist. Rate constants were measured under pseudo-first-order conditions using an excess of PCI over protease. PCI was preincubated with an equimolar concentration of unfractionated heparin for 30 min prior to the experiment. PCI:heparin and protease were incubated together for varying lengths of time and the residual activity after certain timepoints determined by adding an excess of chromogenic substrate for the protease mixed with polybrene to bind the heparin. Plots of residual protease activity over time gave the observed rate constant kobs. The second-order rate constant, k₂, is the slope of the plot of kobs versus serpin concentration (fitted using a linear regression model). Standard errors of the slope are shown. […] This might be due to the substrate pathway or complex dissociation. As for the inhibition in the absence of heparin, the P1′K and P2KP1′K mutants of PCI, unlike the WT protein were specific for APC over thrombin (Table 2).
# fXa [4] = target: T2, fXa (UniProt P00742 41-179; P00742 235-488); assay: pseudo-first-order inhibition kinetics, residual chromogenic activity (S2222)
# T2 construct: also called factor Xa
# T2 sequence (P00742 41-179 limits assumed, form in doubt, chain 1 of 2): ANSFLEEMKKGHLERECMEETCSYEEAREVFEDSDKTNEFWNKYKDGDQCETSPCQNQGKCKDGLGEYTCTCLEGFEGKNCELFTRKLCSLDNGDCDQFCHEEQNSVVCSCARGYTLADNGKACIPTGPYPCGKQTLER
# T2 sequence (P00742 235-488 limits assumed, form in doubt, chain 2 of 2): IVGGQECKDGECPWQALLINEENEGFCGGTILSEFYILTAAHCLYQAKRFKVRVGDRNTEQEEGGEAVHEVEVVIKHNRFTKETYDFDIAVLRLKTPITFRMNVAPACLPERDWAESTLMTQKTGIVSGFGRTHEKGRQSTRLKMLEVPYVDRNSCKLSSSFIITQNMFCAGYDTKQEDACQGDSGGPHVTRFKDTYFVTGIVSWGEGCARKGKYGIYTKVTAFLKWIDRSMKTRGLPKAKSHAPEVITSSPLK
# Procedure: as §1
# thrombin [5] = target: T3, thrombin (UniProt P00734 328-622); assay: pseudo-first-order inhibition kinetics, residual chromogenic activity, no heparin
# Procedure: as §2
# [6] = target: T1, activated Protein C (APC); assay: as above
# Procedure: as §2
# thrombin [7] = target: T3, thrombin; assay: pseudo-first-order inhibition kinetics, residual chromogenic activity, with equimolar unfractionated heparin
# Procedure: as §3
# [8] = target: T1, activated Protein C (APC); assay: as above
# Procedure: as §3
# thrombin [9] = target: T3, thrombin; assay: pseudo-first-order inhibition kinetics, residual chromogenic activity
# [10] = target: T1, activated Protein C (APC); assay: as above
# fXa [11] = target: T2, fXa; assay: as above
# fXa [12] = target: T2, fXa; assay: single-concentration estimate (FIG. 15)
# Procedure: 1 μM serpin was incubated with 12.5 nM protease for different amounts of time. At the indicated timepoints, the reaction was stopped by addition of an excess of chromogenic substrate (S2238 for thrombin, S2222 for fXa). The residual enzyme activity was divided by the initial enzyme activity and the natural log of this value plotted against time. The slope of these plots is the observed rate constant, kobs. To obtain an estimate of the second-order rate constant k₂, kobs was divided by the serpin concentration. […] The mutants shown all have the Pitts (M358R, P1R) mutation.
# Four additional mutants were identified from this additional screen. These all had the P1R mutation and in addition had either P2RP1′A, P2RP1′Q, P2WP1′I or P2WP1′H. To verify the specificity of these mutants, an initial experiment was performed, using only one concentration of serpin and testing its inhibition of thrombin and fXa. APC inhibition was not considered at this stage, because mutants were selected based on their low inhibition of thrombin and fXa. Serpin and protease were incubated for different times and at the indicated timepoints, the reaction was stopped by addition of an excess of chromogenic substrate. Residual protease activity was divided by the initial protease activity and the natural log of this value plotted against time (FIG. 15). The slope of this line divided by the serpin concentration gives an estimate of the second-order rate constant of inhibition.
# T1 sequence (P04070 43-197, chain 1 of 2): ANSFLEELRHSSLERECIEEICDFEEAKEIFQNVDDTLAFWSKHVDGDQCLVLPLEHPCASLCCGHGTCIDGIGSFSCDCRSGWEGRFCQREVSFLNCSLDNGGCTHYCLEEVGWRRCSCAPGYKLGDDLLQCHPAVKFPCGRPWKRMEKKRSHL
# T1 sequence (P04070 212-461, chain 2 of 2): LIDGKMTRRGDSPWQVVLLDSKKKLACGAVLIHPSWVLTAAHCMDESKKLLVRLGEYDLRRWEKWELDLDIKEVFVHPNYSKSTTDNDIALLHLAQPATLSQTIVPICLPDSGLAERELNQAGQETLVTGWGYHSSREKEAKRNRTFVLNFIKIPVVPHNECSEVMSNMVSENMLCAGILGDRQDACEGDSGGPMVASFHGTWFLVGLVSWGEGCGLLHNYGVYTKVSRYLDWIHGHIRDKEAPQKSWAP
Binder,second-order rate constant of inhibition (thrombin [9]) [mM⁻¹ s⁻¹],second-order rate constant of inhibition [10] [mM⁻¹ s⁻¹],second-order rate constant of inhibition (fXa [11]) [mM⁻¹ s⁻¹],fold reduction of the second-order rate constant compared to FL α1AT Pitts C232S (fXa [12]) [fold],also measured
"A22 P1′K PCI (other, As A22 WT PCI) APSSRRDFTFDLYRALASAAPSQNIFFSPVSISMSLAMLSLGAGSSTKMQILEGLGLNLQKSSEKELHRGFQQLLQELNQPRDGFQLSLGNALFTDLVVDLQDTFVSAMKTLYLADTFPTNFRDSAGAMKQINDYVAKQTKGKIVDLLKNLDSNAVVIMVNYIFFKAKWETSFNHKGTQEQDFYVTSETVVRVPMMSREDQYHYLLDRNLSCRVVGVPYQGNATALFILPSEGKMQQVENGLSEKTLRKWLKMFKKRQLELYLPKFSIEGSYQLEKVLPSLGISNVFTSHADLSGISNHSNIQVSEMVHKAVVEVDESGTRAAAATGTIFTFRKARLNSQRLVFNRPFLMFIVDNNILFLGKVNRP",–,–,–,–,fold inhibition APC/fXa [1]: 1.7 fold; fold inhibition APC/thrombin [2]: 40 fold; fold inhibition APC/thrombin [3]: 18900 fold; second-order rate constant of inhibition (fXa [4]): 0.52 mM⁻¹ s⁻¹; second-order rate constant of inhibition (thrombin [5]): 0.022 mM⁻¹ s⁻¹; second-order rate constant of inhibition [6]: 0.88 mM⁻¹ s⁻¹; second-order rate constant of inhibition (thrombin [7]): 0.017 mM⁻¹ s⁻¹; second-order rate constant of inhibition [8]: 322 mM⁻¹ s⁻¹
FL α1AT Pitts C232S P2KP1′Q (other) SDPQGDAAQKTDTSHHDQDHPTFNKITPNLAEFAFSLYRQLAHQSNSTNIFFSPVSIATAFAMLSLGTKADTHDEILEGLNFNLTEIPEAQIHEGFQELLRTLNQPDSQLQLTTGNGLFLSEGLKLVDKFLEDVKKLYHSEAFTVNFGDTEEAKKQINDYVEKGTQGKIVDLVKELDRDTVFALVNYIFFKGKWERPFEVKDTEEEDFHVDQVTTVKVPMMKRLGMFNIQHSKKLSSWVLLMKYLGNATAIFFLPDEGKLQHLENELTHDIITKFLENEDRRSASLHLPKLSITGTYDLKSVLGQLGITKVFSNGADLSGVTEEAPLKLSKAVHKAVLTIDEKGTEAAGAMFLEAIKRQIPPEVKFNKPFVFLMIEQNTKSPLFMGKVVNPTQK,0.0029,9,0.17,–,–
FL α1AT Pitts C232S P2RP1′Q (other) SDPQGDAAQKTDTSHHDQDHPTFNKITPNLAEFAFSLYRQLAHQSNSTNIFFSPVSIATAFAMLSLGTKADTHDEILEGLNFNLTEIPEAQIHEGFQELLRTLNQPDSQLQLTTGNGLFLSEGLKLVDKFLEDVKKLYHSEAFTVNFGDTEEAKKQINDYVEKGTQGKIVDLVKELDRDTVFALVNYIFFKGKWERPFEVKDTEEEDFHVDQVTTVKVPMMKRLGMFNIQHSKKLSSWVLLMKYLGNATAIFFLPDEGKLQHLENELTHDIITKFLENEDRRSASLHLPKLSITGTYDLKSVLGQLGITKVFSNGADLSGVTEEAPLKLSKAVHKAVLTIDEKGTEAAGAMFLEAIRRQIPPEVKFNKPFVFLMIEQNTKSPLFMGKVVNPTQK,0.0054,8.3,0.13,–,–
α1AT Pitts (P1R) mutant P2WP1′H (other) SDPQGDAAQKTDTSHHDQDHPTFNKITPNLAEFAFSLYRQLAHQSNSTNIFFSPVSIATAFAMLSLGTKADTHDEILEGLNFNLTEIPEAQIHEGFQELLRTLNQPDSQLQLTTGNGLFLSEGLKLVDKFLEDVKKLYHSEAFTVNFGDTEEAKKQINDYVEKGTQGKIVDLVKELDRDTVFALVNYIFFKGKWERPFEVKDTEEEDFHVDQVTTVKVPMMKRLGMFNIQHSKKLSSWVLLMKYLGNATAIFFLPDEGKLQHLENELTHDIITKFLENEDRRSASLHLPKLSITGTYDLKSVLGQLGITKVFSNGADLSGVTEEAPLKLSKAVHKAVLTIDEKGTEAAGAMFLEAIWRHIPPEVKFNKPFVFLMIEQNTKSPLFMGKVVNPTQK,–,–,–,~10,–
"α1AT Pitts (P1R) mutant P2RP1′A (other, also called 3.E5) SDPQGDAAQKTDTSHHDQDHPTFNKITPNLAEFAFSLYRQLAHQSNSTNIFFSPVSIATAFAMLSLGTKADTHDEILEGLNFNLTEIPEAQIHEGFQELLRTLNQPDSQLQLTTGNGLFLSEGLKLVDKFLEDVKKLYHSEAFTVNFGDTEEAKKQINDYVEKGTQGKIVDLVKELDRDTVFALVNYIFFKGKWERPFEVKDTEEEDFHVDQVTTVKVPMMKRLGMFNIQHSKKLSSWVLLMKYLGNATAIFFLPDEGKLQHLENELTHDIITKFLENEDRRSASLHLPKLSITGTYDLKSVLGQLGITKVFSNGADLSGVTEEAPLKLSKAVHKAVLTIDEKGTEAAGAMFLEAIRRAIPPEVKFNKPFVFLMIEQNTKSPLFMGKVVNPTQK",–,–,–,~10,–
α1AT Pitts (P1R) mutant P2WP1′I (other) SDPQGDAAQKTDTSHHDQDHPTFNKITPNLAEFAFSLYRQLAHQSNSTNIFFSPVSIATAFAMLSLGTKADTHDEILEGLNFNLTEIPEAQIHEGFQELLRTLNQPDSQLQLTTGNGLFLSEGLKLVDKFLEDVKKLYHSEAFTVNFGDTEEAKKQINDYVEKGTQGKIVDLVKELDRDTVFALVNYIFFKGKWERPFEVKDTEEEDFHVDQVTTVKVPMMKRLGMFNIQHSKKLSSWVLLMKYLGNATAIFFLPDEGKLQHLENELTHDIITKFLENEDRRSASLHLPKLSITGTYDLKSVLGQLGITKVFSNGADLSGVTEEAPLKLSKAVHKAVLTIDEKGTEAAGAMFLEAIWRIIPPEVKFNKPFVFLMIEQNTKSPLFMGKVVNPTQK,–,–,–,~10,–
